T1: human ADAM9 (huADAM9) on cells (human, UniProt Q13443 206-819)
T1 sequence: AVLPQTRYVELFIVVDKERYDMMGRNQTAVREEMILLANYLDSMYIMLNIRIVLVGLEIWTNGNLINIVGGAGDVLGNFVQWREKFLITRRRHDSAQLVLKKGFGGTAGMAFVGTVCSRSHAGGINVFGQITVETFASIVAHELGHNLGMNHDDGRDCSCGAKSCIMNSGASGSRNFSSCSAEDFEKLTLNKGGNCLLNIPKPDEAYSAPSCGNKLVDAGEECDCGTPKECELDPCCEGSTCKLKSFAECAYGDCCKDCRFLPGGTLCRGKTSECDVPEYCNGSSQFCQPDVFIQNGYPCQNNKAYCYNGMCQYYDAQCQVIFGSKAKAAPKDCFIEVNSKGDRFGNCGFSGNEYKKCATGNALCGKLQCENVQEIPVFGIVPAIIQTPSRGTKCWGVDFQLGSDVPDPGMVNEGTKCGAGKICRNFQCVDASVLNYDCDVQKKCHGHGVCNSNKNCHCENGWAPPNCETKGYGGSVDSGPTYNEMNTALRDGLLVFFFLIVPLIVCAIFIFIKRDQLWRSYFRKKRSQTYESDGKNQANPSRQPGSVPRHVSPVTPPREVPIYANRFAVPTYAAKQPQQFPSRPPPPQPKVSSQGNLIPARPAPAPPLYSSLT

T2: cynomolgus monkey ADAM9 (cynoADAM9) on cells (cynomolgus monkey, UniProt Q13443 206-819 (human entry))
T2 construct: also called Cho-K/cynoADAM9 clone 2; Cho-K/cynoADAM9 clone #16
T2 chain: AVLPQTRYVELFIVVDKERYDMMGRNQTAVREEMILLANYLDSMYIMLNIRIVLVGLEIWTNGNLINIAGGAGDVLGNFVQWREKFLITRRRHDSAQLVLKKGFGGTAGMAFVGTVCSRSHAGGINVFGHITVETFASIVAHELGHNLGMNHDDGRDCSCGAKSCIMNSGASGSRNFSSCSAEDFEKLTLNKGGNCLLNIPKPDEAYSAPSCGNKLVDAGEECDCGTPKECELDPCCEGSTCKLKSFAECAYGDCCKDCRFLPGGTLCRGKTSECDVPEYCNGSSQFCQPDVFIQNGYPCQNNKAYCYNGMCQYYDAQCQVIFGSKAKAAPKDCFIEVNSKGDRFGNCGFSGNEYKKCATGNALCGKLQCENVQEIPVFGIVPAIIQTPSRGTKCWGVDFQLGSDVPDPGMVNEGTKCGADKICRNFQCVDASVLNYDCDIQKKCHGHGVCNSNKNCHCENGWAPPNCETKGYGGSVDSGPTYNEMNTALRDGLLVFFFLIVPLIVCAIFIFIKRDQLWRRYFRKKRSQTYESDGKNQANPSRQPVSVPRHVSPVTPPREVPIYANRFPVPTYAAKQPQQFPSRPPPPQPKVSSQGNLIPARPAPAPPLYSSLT

T3: His-tagged soluble human ADAM9 (shADAM9-His) (human, UniProt Q13443 206-697)
T3 construct: Contains an extracellular portion of human ADAM9; also called huADAM9-His; His peptide-tagged soluble huADAM9
T3 sequence: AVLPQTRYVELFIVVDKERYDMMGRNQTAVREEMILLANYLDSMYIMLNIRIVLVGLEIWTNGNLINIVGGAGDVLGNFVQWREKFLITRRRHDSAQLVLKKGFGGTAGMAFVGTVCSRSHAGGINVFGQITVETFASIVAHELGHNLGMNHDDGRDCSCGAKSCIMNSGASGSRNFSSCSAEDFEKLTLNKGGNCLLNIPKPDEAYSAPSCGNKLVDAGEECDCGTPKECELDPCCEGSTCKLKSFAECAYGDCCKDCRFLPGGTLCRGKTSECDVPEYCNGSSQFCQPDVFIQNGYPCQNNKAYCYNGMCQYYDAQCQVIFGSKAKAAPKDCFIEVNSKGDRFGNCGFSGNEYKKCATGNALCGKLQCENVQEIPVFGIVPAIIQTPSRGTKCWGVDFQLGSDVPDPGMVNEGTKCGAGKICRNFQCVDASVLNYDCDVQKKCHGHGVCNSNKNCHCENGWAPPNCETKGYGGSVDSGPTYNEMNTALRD


Key:
[1] = molecular target: T1, human ADAM9 (huADAM9) on cells; test: cell-based or functional assay
[2] = molecular target: T1, human ADAM9 (huADAM9) on cells; test: FACS, 300-19 cells expressing human ADAM9
Procedure: (§1) To evaluate the consequence of conjugation on antigen binding, the relative binding affinity of each anti-ADAM9 immunoconjugate and its respective unconjugated antibody to ADAM9 was determined by FACS analysis on 300-19 cells ectopically-expressing either human ADAM9 or cynomolgus ADAM9. Briefly, the ADAM9-expressing 300-19 cells were incubated with dilution series of anti-ADAM9 antibodies or immunoconjugates for 30 min @ 4° C. in FACS buffer (PBS, 0.1% BSA, 0.01% NaN₃), Samples were then washed and incubated with fluorescently-labeled secondary antibody for 30 minutes at 4° C. The normalized mean of fluorescence intensity at each concentration was plotted and the EC50 of binding was calculated using a nonlinear regression analysis (GraphPad Prims 4.0).

[3] = molecular target: T2, cynomolgus monkey ADAM9 (cynoADAM9) on …; test: FACS, 300-19 cells expressing cynomolgus ADAM9
Procedure: as §1

[4] = molecular target: T2, cynomolgus monkey ADAM9 (cynoADAM9) on …; test: FACS, EC50 on 300-19 cynoADAM9 cells over EC50 on 300-19 huADAM9 cells
Procedure: as §1

[5] = molecular target: T3, His-tagged soluble human ADAM9 …; test: SPR (BIACORE), antibody captured, huADAM9-His in flow
Procedure: The kinetics of binding were determined via BIACORE® analysis binding (normalized 1:1 Langmuir binding model).

Fold-specificity (IC50 control ADC/IC50 anti-ADAM9 ADC), A498 [1] [fold]	Fold-specificity (IC50 control ADC/IC50 anti-ADAM9 ADC), DLD-1 [1] [fold]	Fold-specificity (IC50 control ADC/IC50 anti-ADAM9 ADC), DU145 [1] [fold]	Fold-specificity (IC50 control ADC/IC50 anti-ADAM9 ADC), HPAF2 [1] [fold]	Fold-specificity (IC50 control ADC/IC50 anti-ADAM9 ADC), HS578T [1] [fold]	Fold-specificity (IC50 control ADC/IC50 anti-ADAM9 ADC), IGROV1 [1] [fold]	Fold-specificity (IC50 control ADC/IC50 anti-ADAM9 ADC), KATO III [1] [fold]	Fold-specificity (IC50 control ADC/IC50 anti-ADAM9 ADC), NCI-H1703 [1] [fold]	EC50 [2] [nM]	EC50 [3] [nM]	cyno/human (ratio of EC50) [4]	Binder	In Vitro Cytotoxicity (IC50 nM), A498 [1] [nM]	In Vitro Cytotoxicity (IC50 nM), DLD-1 [1] [nM]	In Vitro Cytotoxicity (IC50 nM), DU145 [1] [nM]	In Vitro Cytotoxicity (IC50 nM), HPAF2 [1] [nM]	In Vitro Cytotoxicity (IC50 nM), HS578T [1] [nM]	In Vitro Cytotoxicity (IC50 nM), IGROV1 [1] [nM]	In Vitro Cytotoxicity (IC50 nM), KATO III [1] [nM]	In Vitro Cytotoxicity (IC50 nM), NCI-H1703 [1] [nM]	other results
> 1000	> 1000	> 1000	> 1000	> 1000	> 1000	> 1000	> 1000	1.55	22.3	14	hMAB-A(2.2)-DGN549 (antibody, human IgG1, kappa, V domains shown, lysine-linked DGN549, sites not given; DGN549-L (compound D2) linked to lysine residues of the antibody, sites not given; average 2.7 mol DGN549/mol antibody) VH: EVQLVESGGGLVKPGGSLRLSCAASGFTFSSYWMHWVRQAPGKGLEWVGEIIPIFGHTNYNEKFKSRFTISLDNSKNTLYLQMGSLRAEDTAVYYCARGGYYYYGSRDYFDYWGQGTTVTVSS VL: DIVMTQSPDSLAVSLGERATISCKASQSVDYSGDSYMNWYQQKPGQPPKLLIYAASDLESGIPARFSGSGSGTDFTLTISSLEPEDFATYYCQQSHEDPFTFGQGTKLEIKR	0.001	0.01	0.002	0.043	0.009	0.001	0.031	0.002	–
–	–	–	–	–	–	–	–	1.5	4.4	3	hMAB-A(2C.2)-sSPDB-DM4 (antibody, human IgG1, kappa, V domains shown, lysine-linked DM4, sites not given; DM4 linked through sulfo-SPDB to lysine residues of the antibody, sites not given; average 3.2 mol DM4/mol antibody) VH: EVQLVESGGGLVKPGGSLRLSCAASGFTFSSYWMHWVRQAPGKGLEWVGEIIPIFGHTNYNEKFKSRFTISLDNSKNTLYLQMGSLRAEDTAVYYCARGGYYYYPRFGWLDYWGQGTTVTVSS VL: DIVMTQSPDSLAVSLGERATISCKASQSVDYSGDSYMNWYQQKPGQPPKLLIYAASDLESGIPARFSGSGSGTDFTLTISSLEPEDFATYYCQQSHEDPFTFGQGTKLEIKR	–	–	–	–	–	–	–	–	–
27	9	25	9	16	3	5	152	1.11	13.3	12	hMAB-A(2.2)-sSPDB-DM4 (antibody, human IgG1, kappa, V domains shown, lysine-linked DM4, sites not given; DM4 linked through sulfo-SPDB to lysine residues of the antibody, sites not given; average 3.2 mol DM4/mol antibody, also called huMAB-A(2.2)-sSPDB-DM4) VH: EVQLVESGGGLVKPGGSLRLSCAASGFTFSSYWMHWVRQAPGKGLEWVGEIIPIFGHTNYNEKFKSRFTISLDNSKNTLYLQMGSLRAEDTAVYYCARGGYYYYGSRDYFDYWGQGTTVTVSS VL: DIVMTQSPDSLAVSLGERATISCKASQSVDYSGDSYMNWYQQKPGQPPKLLIYAASDLESGIPARFSGSGSGTDFTLTISSLEPEDFATYYCQQSHEDPFTFGQGTKLEIKR	0.119	2.73	0.57	0.622	0.119	4.08	1.15	0.024	–
–	–	–	–	–	–	–	–	–	–	–	hMAB-A (2B.2) (antibody, V domains shown, also called MAB-A VH(2B); MAB-A VH(2B.2)) VH: EVQLVESGGGLVKPGGSLRLSCAASGFTFSSYWMHWVRQAPGKGLEWVGEIIPIFGHTNYNEKFKSRFTISLDNSKNTLYLQMGSLRAEDTAVYYCARGGYYYYIGKGVLDYWGQGTTVTVSS VL: DIVMTQSPDSLAVSLGERATISCKASQSVDYSGDSYMNWYQQKPGQPPKLLIYAASDLESGIPARFSGSGSGTDFTLTISSLEPEDFATYYCQQSHEDPFTFGQGTKLEIK	–	–	–	–	–	–	–	–	Kd [5]: 0.6 nM; koff [5]: 0.00039 s⁻¹; kon [5]: 610000 M⁻¹ s⁻¹

— patent publication US20210388102A1 (IMMUNOGEN, published 2021)
